Test results published in patent US20250215412A1 (NOVOZYMES A S, published 2025).

Experiments:
Assay in all cases: cell-based or functional assay
[1] = molecular target: T1, Chryseobacterium sp-62563 deamidase Q126D (Chryseobacterium sp-62563)
T1 sequence: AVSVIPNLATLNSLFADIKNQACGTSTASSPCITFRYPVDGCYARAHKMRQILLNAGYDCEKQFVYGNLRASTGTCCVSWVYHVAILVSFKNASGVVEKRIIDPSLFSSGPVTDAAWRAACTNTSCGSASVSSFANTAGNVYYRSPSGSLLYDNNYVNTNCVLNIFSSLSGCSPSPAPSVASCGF

[2] = molecular target: T2, Chryseobacterium sp-62563 deamidase Q126Y (Chryseobacterium sp-62563)
T2 sequence: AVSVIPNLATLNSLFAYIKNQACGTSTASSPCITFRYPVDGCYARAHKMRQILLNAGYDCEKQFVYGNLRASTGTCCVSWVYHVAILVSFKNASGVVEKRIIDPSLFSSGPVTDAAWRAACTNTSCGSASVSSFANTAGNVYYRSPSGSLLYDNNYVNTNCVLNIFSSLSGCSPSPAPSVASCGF

[3] = molecular target: T3, Chryseobacterium sp-62563 deamidase polypeptide (second polypeptide, deamidase domain), wildtype (Chryseobacterium sp-62563)
T3 sequence: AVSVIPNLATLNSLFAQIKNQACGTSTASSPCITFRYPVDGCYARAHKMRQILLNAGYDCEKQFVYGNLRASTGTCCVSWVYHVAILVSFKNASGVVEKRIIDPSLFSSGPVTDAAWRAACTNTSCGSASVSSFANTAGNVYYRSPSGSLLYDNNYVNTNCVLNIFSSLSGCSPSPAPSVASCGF

[4] = molecular target: T4, Chryseobacterium sp-62563 deamidase C169S (Chryseobacterium sp-62563)
T4 sequence: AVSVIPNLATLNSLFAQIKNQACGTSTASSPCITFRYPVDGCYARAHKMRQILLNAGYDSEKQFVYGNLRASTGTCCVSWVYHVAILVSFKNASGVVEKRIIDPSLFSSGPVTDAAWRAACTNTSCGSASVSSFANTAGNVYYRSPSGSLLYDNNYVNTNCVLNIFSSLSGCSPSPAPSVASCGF

[5] = molecular target: T5, Chryseobacterium sp-62563 deamidase Q126E (Chryseobacterium sp-62563)
T5 sequence: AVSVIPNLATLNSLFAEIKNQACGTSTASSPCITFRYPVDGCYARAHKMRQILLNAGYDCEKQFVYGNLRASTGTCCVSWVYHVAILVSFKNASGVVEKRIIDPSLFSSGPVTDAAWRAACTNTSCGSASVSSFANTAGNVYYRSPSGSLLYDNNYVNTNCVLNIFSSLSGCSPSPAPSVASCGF

[6] = molecular target: T6, Chryseobacterium sp-62563 deamidase Q160R (Chryseobacterium sp-62563)
T6 sequence: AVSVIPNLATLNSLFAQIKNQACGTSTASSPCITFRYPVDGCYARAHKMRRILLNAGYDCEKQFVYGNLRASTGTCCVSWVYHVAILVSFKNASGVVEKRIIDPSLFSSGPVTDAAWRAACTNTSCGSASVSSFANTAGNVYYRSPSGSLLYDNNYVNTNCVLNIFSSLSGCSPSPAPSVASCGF

[7] = molecular target: T7, Chryseobacterium sp-62563 deamidase Q160N (Chryseobacterium sp-62563)
T7 sequence: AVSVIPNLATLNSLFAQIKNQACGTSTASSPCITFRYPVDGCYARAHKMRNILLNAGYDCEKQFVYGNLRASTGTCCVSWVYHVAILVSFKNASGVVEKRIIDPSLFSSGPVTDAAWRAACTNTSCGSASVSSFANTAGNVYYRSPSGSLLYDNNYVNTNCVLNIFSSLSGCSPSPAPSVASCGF

[8] = molecular target: T8, Chryseobacterium sp-62563 deamidase Q130E (Chryseobacterium sp-62563)
T8 sequence: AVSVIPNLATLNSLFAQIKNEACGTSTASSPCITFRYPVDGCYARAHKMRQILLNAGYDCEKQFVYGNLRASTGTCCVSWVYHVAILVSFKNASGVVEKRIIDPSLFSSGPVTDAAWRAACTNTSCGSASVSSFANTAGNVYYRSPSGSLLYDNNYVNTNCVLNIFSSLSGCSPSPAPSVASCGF

[9] = molecular target: T9, Chryseobacterium sp-62563 deamidase Q130D (Chryseobacterium sp-62563)
T9 sequence: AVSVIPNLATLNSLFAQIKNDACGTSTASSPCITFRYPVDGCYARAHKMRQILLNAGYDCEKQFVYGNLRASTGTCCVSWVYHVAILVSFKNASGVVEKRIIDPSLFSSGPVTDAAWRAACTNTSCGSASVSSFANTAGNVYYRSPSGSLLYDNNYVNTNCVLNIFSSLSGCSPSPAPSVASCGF

[10] = molecular target: T10, Chryseobacterium sp-62563 deamidase Q172V (Chryseobacterium sp-62563)
T10 sequence: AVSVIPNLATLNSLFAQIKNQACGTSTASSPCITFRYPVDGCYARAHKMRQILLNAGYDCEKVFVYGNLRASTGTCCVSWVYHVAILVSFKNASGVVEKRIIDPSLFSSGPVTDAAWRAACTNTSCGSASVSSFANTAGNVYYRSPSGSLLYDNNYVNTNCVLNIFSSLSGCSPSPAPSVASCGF

[11] = molecular target: T11, Chryseobacterium sp-62563 deamidase Q130K (Chryseobacterium sp-62563)
T11 sequence: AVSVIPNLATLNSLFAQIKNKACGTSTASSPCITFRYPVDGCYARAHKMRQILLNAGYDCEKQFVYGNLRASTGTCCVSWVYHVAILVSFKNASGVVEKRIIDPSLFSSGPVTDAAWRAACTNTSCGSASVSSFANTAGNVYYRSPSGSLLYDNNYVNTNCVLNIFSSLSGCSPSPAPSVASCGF

[12] = molecular target: T12, Chryseobacterium sp-62563 deamidase Q172E (Chryseobacterium sp-62563)
T12 sequence: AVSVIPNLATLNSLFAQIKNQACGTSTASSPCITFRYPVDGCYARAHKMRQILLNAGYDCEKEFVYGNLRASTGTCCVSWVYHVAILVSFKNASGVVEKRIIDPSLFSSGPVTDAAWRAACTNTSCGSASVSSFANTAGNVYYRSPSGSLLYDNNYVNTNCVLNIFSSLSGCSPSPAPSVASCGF

Relative activity of maturated deamidase (% initial rate) [1]: 99
Leakage activity [2]: 3%
Relative activity of maturated deamidase (% initial rate) [2]: 98
Leakage activity [3]: 4%
NanoDSF thermal unfolding temperature [3]: 76.4 ° C.
Relative activity of maturated deamidase (% initial rate) [3]: 52
Leakage activity [4]: 1%
Relative activity of maturated deamidase (% initial rate) [4]: > 100
Relative activity of maturated deamidase (% initial rate) [5]: > 100
Relative activity of maturated deamidase (% initial rate) [6]: 86
Relative activity of maturated deamidase (% initial rate) [7]: > 100
Relative activity of maturated deamidase (% initial rate) [8]: 44
Relative activity of maturated deamidase (% initial rate) [9]: > 100
Relative activity of maturated deamidase (% initial rate) [10]: 66
Relative activity of maturated deamidase (% initial rate) [11]: 92
Relative activity of maturated deamidase (% initial rate) [12]: 64
B1: Chryseobacterium sp-62563 propeptide F99A (protein)
chain: NQDPNLVAKESNETAMKDFGKTVPVGIEKEDGKFKISFMVTAQPYEIKDSKENAAYISMIKTAVENETPIHVFLKANTNEIAKVDKATDDDIRYFKSVATKEVKEENRK
